From US20250134947A1, “TRI-, TETRA AND PENTAPEPTIDES, COMPOSITIONS THEREOF AND THEIR USE IN THE THERAPY OF PSORIASIS” (ENUMITA AS, priority 2021, published 2025)

target: T1, transformation of SerpinB3 to Pso p27 with chymase (Homo sapiens, UniProt P29508); assay: Test of peptides: inhibition of chymase transformation of SerpinB3 to Pso p27, SDS-gel-electrophoresis; type: biochemical; settings: SerpinB3 2 μg in 35 μl PBS, peptide 5 μl (10 mg/ml) 1 hour at 37C°, then 1 μl chymase over night at 37C°
T1 construct: made in house; host or cells: Escherichia coli BL21 (DE3) RIPL (Stratagene)
T1 sequence (P29508 1-390): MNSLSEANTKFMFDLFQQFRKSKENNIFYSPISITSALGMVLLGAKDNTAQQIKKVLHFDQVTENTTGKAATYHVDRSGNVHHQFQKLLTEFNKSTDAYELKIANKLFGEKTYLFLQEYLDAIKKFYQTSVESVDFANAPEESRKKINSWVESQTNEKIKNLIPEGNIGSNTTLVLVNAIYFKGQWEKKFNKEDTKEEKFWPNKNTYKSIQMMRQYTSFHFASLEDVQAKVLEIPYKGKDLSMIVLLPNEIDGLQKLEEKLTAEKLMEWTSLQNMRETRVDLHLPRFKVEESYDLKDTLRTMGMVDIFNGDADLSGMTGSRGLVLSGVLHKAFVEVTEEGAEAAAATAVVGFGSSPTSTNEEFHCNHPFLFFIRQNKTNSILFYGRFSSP
Protocol: In this Example, peptides were tested in order to find out whether they are able to prevent and/or inhibit the formation of Pso p27. The peptides were purchased from Biomatik Corporation, 4 Third Ave, Kitchener, Ontario, N2C 1N6, Canada, and analyzed with respect to prevention and/or inhibiting potential. The following methods were used:
Expression vector pMCSG7 Serpin B3 (Clone ID: HsCD00343153) was used. Recombinant SerpinB3 was expressed in Escherichia coli BL21 (DE3) RIPL (Stratagene) and purified as described by Lysvand H, Helland R, Hagen L, Slupphaug G, Iversen OJ., “Psoriasis pathogenesis-Pso p27 is generated from SCCA 1 with chymase”, Biochim. Biophys. Acta 1842 (2014) 734-738.
SerpinB3 solved in phosphate-buffered saline (PBS) (2 μg in 35 μl PBS) was incubated with a tripeptide or tetrapeptide 5 μl (10 mg/ml) for 1 hour at 37C°. 1 μl chymase was added and the mixture was incubated over night at 37C°. The solution was analyzed by SDS-gel-electrophoresis.
SDS-gel-electrophoresis was performed as described by Iversen O J, Lysvand H, Hagen L., “The autoantigen Pso p27: a post-translational modification of SCCA molecules”, Autoimmunity 44 (2011) 229-234.

prevention and/or inhibition of the cleavage reaction of the serpin molecules SerpinB3/B4, and/or prevention and/or inhibition of the formation of Pso p27	Substance
effective	Asp-Asp-Lys-Pro (DDKP) [tetrapeptide]
effective	Asp-Asp-Pro [DDP]
effective	Asp-Asp-Pro-Lys (DDPK) [tetrapeptide]
effective	Asp-Glu-Leu-Pro (DELP) [tetrapeptide]
effective	Asp-Glu-Pro [DEP]
effective	Asp-Glu-Pro-Asn (DEPN) [tetrapeptide]
effective	Asp-Glu-Pro-Leu (DEPL) [tetrapeptide]
effective	Asp-Leu-Glu-Pro (DLEP) [tetrapeptide]
effective	Asp-Lys-Pro-Asp (DKPD) [tetrapeptide]
effective	Asp-Pro-Asn-Glu (DPNE) [tetrapeptide]
effective	Asp-Pro-Glu [DPE]
effective	Asp-Pro-Glu-Asn (DPEN) [tetrapeptide]
effective	Asp-Pro-Glu-Leu (DPEL) [tetrapeptide]
effective	Asp-Pro-Leu-Glu (DPLE) [tetrapeptide]
effective	Glu-Asn-Asp-Pro (ENDP) [tetrapeptide]
effective	Glu-Asp-Asn-Pro (EDNP) [tetrapeptide]
effective	Glu-Asp-Leu-Pro (EDLP) [tetrapeptide]
effective	Glu-Pro-Asp [EPD]
